Test results reported in the supplement of paper PMC10126150.
± gives the standard deviation of the averaged measurements.

Tested on: ATP
Test: switch fluorescence ratio, 500 uM ATP over buffer (Cy3 cluster intensity, sum of 5 cycles each) (fold (ratio)); higher = stronger signal-on switching upon ATP binding; sequences stand for … in TCGTCGGCAGCGTCAGATGTGTATAAGAGACAGTTTTTTTTTTTTTTTTTTTTTTTTT…TC
Details: aptamer strand: ATP DNA aptamer (quencher-CACCTGGGGGAGTATTGCGGAGGAAGG + anchor), 100 nM annealed; ATP concentration: 500 uM
How it was run: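 Switching-strand clusters labelled with Cy3 on a modified Illumina MiSeq flow-cell were annealed to 100 nM quencher-labelled ATP aptamer, imaged in selection buffer, and re-imaged after 15 min with 500 uM ATP at 22 °C. This was done over five cycles with NaOH stripping and re-annealing in between. The fluorescence ratio is summed target-cycle over summed buffer-cycle Cy3 intensity per cluster, averaged per switch-domain sequence, excluding clusters outside 100-1000 RFU.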
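Further: ATP exposure 15 min at 22 °C before imaging.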

Sequence	switch fluorescence ratio
ATATTTCTGG	0.986 ± 0.018
ATATTTCTGT	0.981 ± 0.019
ATATTTGCGA	0.973 ± 0.022
ATATTTTAGT	1.03 ± 0.031
ATATTTTATT	1.02 ± 0.031
ATATTTTCGC	1.04 ± 0.03
ATATTTTTGT	1.03 ± 0.014
ATCAAAGTTT	0.994 ± 0.042
ATCAAATAGT	1.01 ± 0.037
ATCAAGTCGG	0.969 ± 0.02
ATCAAGTGGT	0.9701 ± 0.006
ATCAATATAG	1.03 ± 0.018
ATCAATGACG	0.95 ± 0.059
ATCACGGGGA	1.01 ± 0.032
ATCACGTCGG	1.014 ± 0.0093
ATCACTGGTA	1.03 ± 0.017
ATCAGAATAC	1.74 ± 0.43
ATCAGAGGTA	1.01 ± 0.014
ATCAGCCGGC	0.99 ± 0.034
ATCAGGGCT	1.01 ± 0.028
ATCAGGGGAG	1 ± 0.018
ATCAGGGGGC	1.03 ± 0.036
ATCAGGGTGT	1.16 ± 0.031
ATCAGGTGCG	1.2924 ± 0.00069
ATCATAATAC	1.406 ± 0.0065

Sequence	switch fluorescence ratio
ATCATAATTG	1.005 ± 0.0092
ATCATCGCAG	1.08 ± 0.058
ATCATCTGAA	0.987 ± 0.016
ATCATCTTGT	1.042 ± 0.0015
ATCATGGATG	0.997 ± 0.019
ATCATGTGGC	0.989 ± 0.025
ATCATTGCGG	0.9746 ± 0.0012
ATCATTGCTG	0.949 ± 0.056
ATCATTGGTT	1.01 ± 0.015
ATCATTTATT	1.01 ± 0.042
ATCATTTGGC	0.981 ± 0.068
ATCATTTTAG	0.995 ± 0.01
ATCCACGCTA	1.45 ± 0.022
ATCCAGGTTT	1.1 ± 0.036
ATCCCAATGT	1.14 ± 0.026
ATCCCTTCCA	1.24 ± 0.087
ATCCGGGCGG	1.02 ± 0.071
ATCCGTTGCT	1.01 ± 0.048
ATCCTGGGGG	1.4 ± 0.7
ATCCTGTAGT	0.999 ± 0.044
ATCCTTGTGT	0.993 ± 0.02
ATCCTTTTGG	1.03 ± 0.094
ATCGAAAGTT	0.99 ± 0.013
ATCGAAGGTC	0.999 ± 0.015
ATCGAATGCT	1.001 ± 0.0096

Sequence	switch fluorescence ratio
ATCGACCGGC	1.04 ± 0.071
ATCGACTTGG	1.016 ± 0.0053
ATCGAGAGGC	1.06 ± 0.047
ATCGATCGTT	0.9986 ± 0.0027
ATCGATGGGA	0.987 ± 0.07
ATCGATTTCG	0.975 ± 0.017
ATCGCAGACA	1.04 ± 0.015
ATCGCTAGCT	0.9905 ± 0.0068
ATCGGAATCC	1.19 ± 0.094
ATCGGACGGG	1.02 ± 0.016
ATCGGATTAG	0.995 ± 0.0094
ATCGGCACAT	1.1 ± 0.012
ATCGGCGCGC	0.9957 ± 0.0026
ATCGGGAACT	1.02 ± 0.015
ATCGGGGGAC	0.959 ± 0.021
ATCGGGGGGC	1 ± 0.055
ATCGGGGGGT	1.01 ± 0.035
ATCGGGGGTA	0.982 ± 0.016
ATCGGGTCGA	1 ± 0.023
ATCGGGTGTA	0.994 ± 0.013
ATCGGTACTG	0.965 ± 0.027
ATCGGTTTCT	1.002 ± 0.0083
ATCGGTTTGG	0.996 ± 0.0095
ATCGTAAGGA	1.02 ± 0.046
ATCGTACAGC	1.13 ± 0.017

Sequence	switch fluorescence ratio
ATCGTCACGG	1.022 ± 0.0012
ATCGTCGGAT	0.982 ± 0.022
ATCGTCTCGC	1.03 ± 0.05
ATCGTGGGGT	0.971 ± 0.016
ATCGTGTATG	0.968 ± 0.028
ATCGTTAAAC	1.01 ± 0.0099
ATCGTTAATT	0.981 ± 0.041
ATCGTTACGA	1.02 ± 0.026
ATCGTTCGCG	0.996 ± 0.016
ATCGTTCTTT	0.973 ± 0.027
ATCGTTGCGT	1.02 ± 0.031
ATCTAAACTT	1.02 ± 0.035
ATCTAAATAA	1.03 ± 0.019
ATCTAAGGTT	1.01 ± 0.025
ATCTAGCAAC	1.36 ± 0.049
ATCTAGGTAC	1.06 ± 0.058
ATCTATCGGA	1.0073 ± 0.00071
ATCTATGCGA	1.0635 ± 0.0004
ATCTCAGGGC	0.979 ± 0.014
ATCTCATAGT	1 ± 0.025
ATCTCCGGTT	1.1 ± 0.17
ATCTCTTTCT	1.04 ± 0.019
ATCTGACTCC	2.52 ± 0.19
ATCTGATGCG	0.981 ± 0.1
ATCTGCCTGC	1.074 ± 0.009

Sequence	switch fluorescence ratio
ATCTGGGCGG	0.997 ± 0.029
ATCTGGGGAA	1.01 ± 0.045
ATCTGGTAAT	1.005 ± 0.0031
ATCTGGTTTG	0.955 ± 0.023
ATCTGTAAGG	1.02 ± 0.043
ATCTGTAGGG	1.023 ± 0.0075
ATCTGTCAGT	0.9807 ± 0.0092
ATCTGTTAGG	1.03 ± 0.041
ATCTTAATTG	1.005 ± 0.0075
ATCTTATGTT	0.987 ± 0.025
ATCTTTCCTG	1.053 ± 0.0087
ATCTTTTTCT	1.03 ± 0.052
ATGAAAATGG	0.971 ± 0.019
ATGAAAGACG	1.04 ± 0.075
ATGAAAGTAT	1.011 ± 0.0061
ATGAACTAGG	0.991 ± 0.022
ATGAAGACGG	1.03 ± 0.059
ATGAAGGATG	1.01 ± 0.02
ATGAAGGGAG	0.991 ± 0.061
ATGAAGTGGA	0.9555 ± 0.0093
ATGAAGTTTT	1.02 ± 0.028
ATGAATGAGT	0.985 ± 0.016
ATGAATGCGG	0.99 ± 0.0094
ATGAATTGGA	0.989 ± 0.017
ATGACAGAAG	1.03 ± 0.05

Sequence	switch fluorescence ratio
ATGACCTTCA	2.1 ± 0.078
ATGACGGAGC	1.94 ± 0.31
ATGACGGTGG	0.94 ± 0.014
ATGAGAAGAC	1.02 ± 0.021
ATGAGAGGAA	0.981 ± 0.028
ATGAGAGGAT	0.9797 ± 0.0026
ATGAGATTCG	0.99 ± 0.026
ATGAGCTGTG	1.01 ± 0.056
ATGAGGATGT	1 ± 0.019
ATGAGGGATT	0.965 ± 0.011
ATGAGGGGTG	1.013 ± 0.0076
ATGAGGTCGT	1.008 ± 0.007
ATGAGTGGCT	0.999 ± 0.054
ATGAGTTTTC	1.024 ± 0.0043
ATGATACCTT	1.17 ± 0.019
ATGATAGGGG	0.998 ± 0.023
ATGATATTAG	1.004 ± 0.0066
ATGATCAACG	0.999 ± 0.015
ATGATCAGCT	0.9824 ± 0.0077
ATGATCCCCG	1.05 ± 0.025
ATGATCGCGT	1.01 ± 0.024
ATGATCTAGT	1.03 ± 0.064
ATGATCTCCG	1.32 ± 0.017
ATGATGAAGA	1.02 ± 0.019
ATGATGAAGT	1.02 ± 0.017

Sequence	switch fluorescence ratio
ATGATGGGGT	1.01 ± 0.06
ATGATGTGAG	1.01 ± 0.051
ATGATTATAT	0.99 ± 0.017
ATGATTCAGC	1.03 ± 0.083
ATGATTCTGT	1 ± 0.021
ATGATTGCAC	1.01 ± 0.057
ATGATTGTCG	0.994 ± 0.017
ATGATTTGGC	1.04 ± 0.048
ATGATTTTAG	1 ± 0.031
ATGATTTTGG	0.992 ± 0.023
ATGCAATTTT	1.017 ± 0.0034
ATGCACACTC	1.225 ± 0.0043
ATGCAGAGAG	1.01 ± 0.031
ATGCAGAGTA	1.01 ± 0.018
ATGCAGCAT	1.06 ± 0.036
ATGCAGGGTT	0.978 ± 0.053
ATGCAGTGTG	1.02 ± 0.019
ATGCATACTG	1.03 ± 0.022
ATGCATATCG	1 ± 0.036
ATGCATGGGA	0.987 ± 0.02
ATGCATTGTT	1 ± 0.027
ATGCCAGCGC	1.02 ± 0.025
ATGCCGATCG	1.05 ± 0.021
ATGCCGGGAT	1.02 ± 0.02
ATGCCGGGGC	1.02 ± 0.037

Sequence	switch fluorescence ratio
ATGCCTGTGT	0.977 ± 0.012
ATGCGAAGAT	1.01 ± 0.011
ATGCGCAAGG	1.25 ± 0.033
ATGCGCAGAA	1.01 ± 0.034
ATGCGCGCCG	0.982 ± 0.037
ATGCGGCTG	1.04 ± 0.11
ATGCGGTAGG	1.01 ± 0.016
ATGCGTGGTA	1.02 ± 0.041
ATGCGTTTTG	1.01 ± 0.017
ATGCTAAGCT	1.013 ± 0.0096
ATGCTAATTT	0.9666 ± 0.0015
ATGCTACCAT	1.05 ± 0.022
ATGCTATGTG	0.9752 ± 0.0055
ATGCTTCGTG	0.975 ± 0.027
ATGCTTTTTT	0.994 ± 0.017
ATGGAAAGGT	1.009 ± 0.0074
ATGGAAAGTG	0.9599 ± 0.0071
ATGGAAGCTA	1.02 ± 0.013
ATGGAAGGCG	1.01 ± 0.036
ATGGAATGAG	0.998 ± 0.012
ATGGAGGGTG	1.04 ± 0.031
ATGGAGTGG	1 ± 0.049
ATGGATAAGG	1.01 ± 0.024
ATGGATATTA	1.03 ± 0.046
ATGGATGAGA	0.989 ± 0.03
